Experiments:
[1] = system: S. sanguinis; assay: Release of antibiotics from self-assembling peptide gels: impact on bacterial growth (turbidity OD600); format: cell-based; settings: antibiotic 150 mg/ml released from self-assembling peptide gels (15 mg/ml), aerobic, OD600 normalized to gel without antibiotic, over 120 hours
Experimental: (§1) The following figures and examples are supposed to illustrate and further explain, but not to limit the invention. Any references cited herein are herewith fully incorporated. • Fig. 1: Bacterial density after release of antibiotics (150 mg/ml) from self-assembling peptide gels (15 mg/ml), and the impact thereof to the growth of P. gingivalis (A-C) and S. sanguinis (D-F). Circles: metronidazol, stars: tetracycline, triangle: ciprofloxacin, squares: doxycycline hyclate; control: gel without API A/D P11-4 gel. B/E P11-13/14 gel. C/F P11-28/29 gel • Fig. 2: Cross section of demineralized tooth after incubation with polymeric P11-4. […] 100µl peptide / well, c= 20 mg/ml, in PBS, quantified with Qubit R Protein Assay Ref: Q33211. […] 100 µl peptide / well, c= 20 mg/ml, in PBS, quantified with Qubit R Protein Assay Ref: Q33211. […] Since NO3- are monovalent ions, and ionic strength of the solution was below 130 mM, P11-8 self-assembling was slowed down. […] The cell/SAP-gel/ dentin was then incubated for 8 days and visually assessed resulting in migration of up to 5 mm. […]
(§2) Furthermore 100 uL/well of a defined anaerobic P. gingivalis or aerobic S. anguines bacterial culture ([…] e.g. 990 µl BHI medium, 10 µl 10^8 CFU/ml bacteria suspension) were added onto the gels. Impact on growth was assessed by measuring turbidity at OD600 nm. […]

[2] = system: P. gingivalis; assay: as above; format: cell-based; settings: antibiotic 150 mg/ml released from self-assembling peptide gels (15 mg/ml), anaerobic, OD600 normalized to gel without antibiotic, over 120 hours
Experimental: as §1, §2

[3] = Stability of P11 peptide gels in absence of cells or bacteria (peptide release into supernatant, Qubit Protein Assay); format: physicochemical; design: unit not given here; settings: 7 days, 100µl peptide / well, c= 20 mg/ml, in PBS
Experimental: (§3) The following figures and examples are supposed to illustrate and further explain, but not to limit the invention. Any references cited herein are herewith fully incorporated. • Fig. 1: Bacterial density after release of antibiotics (150 mg/ml) from self-assembling peptide gels (15 mg/ml), and the impact thereof to the growth of P. gingivalis (A-C) and S. sanguinis (D-F). Circles: metronidazol, stars: tetracycline, triangle: ciprofloxacin, squares: doxycycline hyclate; control: gel without API A/D P11-4 gel. B/E P11-13/14 gel. C/F P11-28/29 gel • Fig. 2: Cross section of demineralized tooth after incubation with polymeric P11-4. […] 100µl peptide / well, c= 20 mg/ml, in PBS, quantified with Qubit R Protein Assay Ref: Q33211. […] 100 µl peptide / well, c= 20 mg/ml, in PBS, quantified with Qubit R Protein Assay Ref: Q33211. […] Since NO3- are monovalent ions, and ionic strength of the solution was below 130 mM, P11-8 self-assembling was slowed down. On the other hand self-assembling kinetic of P11-8 with DMEM and NaCl solution is very similar. […] Human Periodontal Ligament cells were placed in a cell pool (A) and the SAP gel (C) placed on the human dentin (B). The cell/SAP-gel/ dentin was then incubated for 8 days and visually assessed resulting in migration of up to 5 mm. Scale bar: 1 mm

[4] = system: Human Periodontal Ligament cells; assay: Cell migration on a periodontal ligament model (cell pool / SAP gel / human dentin); format: cell-based; settings: 15 mg/ml gel on human dentin, 8 days of incubation, visually assessed
Experimental: as §3

[5] = Mechanical properties (storage modulus G') of gels in different ion and buffer systems; format: physicochemical; settings: compared with Tris-NaCl
Experimental: as §3

[6] = system: bacteria; assay: Degradation of P11-4 peptide gel in presence of bacteria (Qubit Protein Assay); format: physicochemical; settings: 100 µl peptide / well, c= 20 mg/ml, in PBS
Experimental: as §3

Compound	inhibition of bacterial growth (relative bacterial density) [1]	inhibition of bacterial growth (relative bacterial density) [2]	release of peptide into the supernatant [3]	migration [4]	storage modulus G' ([5]; gel formed in DMEM (pH 7.4, ionic strength 130 mM))	storage modulus G' ([5]; gel formed in artificial saliva (Tris 120 mM, Ca(NO3) 4 mM, KH2PO4 2.4 mM, pH 7.2), DMEM, Tris MgSO4)	stability (time the peptide is stable) [6]
Cc1ncc([N+](=O)[O-])n1CCO [metronidazole]	low effectivity in most systems at this concentration	low effectivity in most systems at this concentration					
QQRFEWEFEQQ [P11-4, self-assembling peptide]			less than one	up to 5 mm	lower storage modulus	storage moduli between G'(NaCl and MgSO^4) was reached	more than 3 days
